# Data: the DeepSol protein solubility set
# Test: soluble on expression in E. coli; label from the status in PepcDB or PDB records
row,Sequence,soluble on expression in E. coli
1,MGHHHHHHSHMHAPLSLLKQMLKEHQIDTEKAVTFEEYIAMRLKLQELMGKFASIGEWDLYQKAADLMMHIGIQWMK,not soluble
2,MSETELRKRQAQFTRELHGDDIGKKTGLSALMSKNNSAQKEAVQKYLRNWDGRTDKDAEERRLEDYNEATHSYYNVVTDFYEYGWGSSFHFSRFYKGESFAASIARHEHYLAYKAGIQRGDLVLDVGCGVGGPAREIARFTGCNVIGLNNNDYQIAKAKYYAKKYNLSDQMDFVKGDFMKMDFEENTFDKVYAIEATCHAPKLEGVYSEIYKVLKPGGTFAVYEWVMTDKYDENNPEHRKIAYEIELGDGIPKMFHVDVARKALKNCGFEVLVSEDLADNDDEIPWYYPLTGEWKYVQNLANLATFFRTSYLGRQFTTAMVTVMEKLGLAPEGSKEVTAALENAAVGLVAGGKSKLFTPMMLFVARKPENAETPSQTSQEATQ,soluble
3,MSLTTFLFRNGALLDPDHPDLLQGFEILIEDGFIREVSDKPIKSSNAHVIDVKGKTIMPGLIDLHVHVVAIEFNLPRVATLPNVLVTLRAVPIMRAMLRRGFTTVRDAGGAGYPFKQAVESGLVEGPRLFVSGRALSQTGGHADPRARSDYMPPDSPCGCCVRVGALGRVADGVDEVRRAVREELQMGADQIKIMASGGVASPTDPVGVFGYSEDEIRAIVAEAQGRGTYVLAHAYTPAAIARAVRCGVRTIEHGNLIDDETARLVAEHGAYVVPTLVTYDALASEGEKYGLPPESIAKIADVHGAGLHSIEIMKRAGVKMGFGTDLLGEAQRLQSDEFRILAEVLSPAEVIASATIVSAEVLGMQDKLGRIVPGAHADVLVVDGNPLKSVDCLLGQGEHIPLVMKDGRLFVNELEGHEGHHHHHH,soluble
4,MALNRMRQAKGAVASLLQNAYVHRDQVSLISFRGKQAQVLLPPSQSVDRAKRELDVLPTGGGTPLASALLTGWETAKQARAKGITQIMFVMITDGRGNIPLGAAYDPNATKASKEELEKEVEALALSIQADGIASIVVDTQMNYLSRGEAPKLAQKLGGRYFYLPNAKAEQIVEAALS,not soluble
5,GPGSMQRHRTPEPGPRGASSQNPRRPPQTSAKSPARRVSRRSSAATTSAPGGIELTRAQQIEAKAARDAVVGAMTKSSPQAAKMFVESISLDVDVETTRQLLCSKKGFVALPSSIGVLCRQLRKLDLSGNGLTDLSPLATLQHLSNLNVAHNGLLASLKGLSGTCLSVLNISFCAVESLEGLEHTALTLRTFIANDNRLQLHSPLLADVVATAGEDAAEMEAAREHLPESLCRSSSHSGADLRAVAQRNYAIFSTFQQCETVVLSRNTRLCQLFPTWGVEEVAAECGEVPGRSSAAADDEGSDDAADGASTTMSADGDGGDSANRGKKHRASAAKRRDRRRIAVHPTDRSASNTPAAAREPFGDSPEMATYNQRRHALALAHPLSVFERLSRLRKLSLSGCELHSLPVRWFLPMVTELRLAQNHLTSLQPDGVILRSLHILDISNNLFASVASLRRCRYLEQLNVRGNPLIEEGVLQDKAAGLTTAERIADVAATTPSSGTSAAPIAVQQRLLRLFPNMKLLDGQPMMTAGQVRSAYMQRNARSAAERQDKLTEKGCSDGSAIVASLHEARDDVGNAHAASDDSERGSSSGDAPRTAPTARAEARSPARKARRADSAVIAAEADEKDNVVEAPLSVVKTAHAQIVRRERVLLRPGAAAASGSNTGAAGQKRKAGQTPTSPAAVVYGQAAVAKLLEQSRSRSAW,not soluble
6,MDQLWANRAASAEAAITERHLKKLWGLPGTQLGVVAWPPARKYTLFGTWHYWWQAHLLDCLVDAQVRDPQPERTTRIERQLRAHRLRNNLSWVNDYYDDMAWLALAIERAGRLAGVEKPTALRKLCDQFVTAWVPEDGGGIPWRKQDQFFNAPANGPAGIFLARYDDRLRRAQQMADWIDETLIDPDTHLVFDGIKAGSLVRAQYTYCQGVVLGLEVELAVRTQDPRHAPRVRRLVAAVDKEMTTDGVIKGAGGGDGGLFNGILARYLALVATTLPGETPEDIAARDTARTIVLKSARSAWDHRQTVDGLPLFSAFWDRNAEIPTAGGKEAEFVEGAVNASSVPERDLSVQLAGWMLMEAAHSVDSVDAEDAAGDQNGAGDGEVGHDENEDEELEHHHHHH,soluble
7,MSSKKNFEVGENVACIYKGKPYDAKITDIKTNSDGKELYCVHFKGWNNRYDEKIPVGEEKDRIFKGTASEYAEKHNAELPTTALKPKKKSLAAEAPRDDRDDTPGTSKGKKAKSVTIAPVMTADDMKVELPKPLRKILIDDYDLVCRYFINIVPHEYSVDQIIEDYIKTIPVSNEQMRTVDDLLIEYEEADIKITNLALICTARGLVDYFNVTLGYQLLYKFERPQYNDLVKKRAMEKGIDITNPTALQDSGFRPSQEYGIVHFLRMLAKLPDYLKLTQWNDHVINRIMIGVHDLIVFLNKNHGKYYRGSSDYQGASNDYYRRSLAADDGVGANQ,not soluble
8,MGSDKIHHHHHHMSVTNVTREELWAKQHLSCKNMDYAVWERDKSMLQKLSRINGGCSFVVDVYKGCYAYASTGFVDWLGYDRHKIETLEKQGDYLESRIHPHDRSQLEDLQVRLGKFIYNQPFEHRNDYCNVYSFRILNARGNYVRVTSRHQVLEQSHDGKAWLIIGNMSMAPGQKESEQVECTVLNLRNGEMFSPGVVIMNPAFGLTGREMEILRLIQRGFLSKEIADKLCISIHTVHIHRQNLLRKLGVQNSLEAIRLGQESGLLS,not soluble
9,SKDCIIQRYKDGDVNNIYTANRNEEITIEEYKVFVNEACHPYPVILPDRSVLSGDFTSAYADDDESC,soluble
10,MTEVAKGVATHQRLVALLTQENARYRVVNHEAVGKCEAVSEIRGTALGQGAKALVCKVKGNGVNQHVLAILAADQQADLSQLASHLGGLRASLASPAEVDMLTGCVFGAIPPFSFHPNLKLVADPLLFERFDEIAFNAGLLEKSVIMNTQDYLRIARPELAVFRRFQSSPTA,not soluble
11,YPQVIVDHPFLYLIRNRKSGIILFMGRVMNPHH,soluble
12,MPDHARMPRNLSSNKIAKTIAGEDLDEEEVLEMDAGQSAREEGRFVFECAWEVANKVGGIYTVLRSKAQISTEELGDQYCMFGPMKDGKWRLEVDPIEPENRTIRAAMKRFQADGFRCMYGRWLIEGYPKVILFDLGSGAVKMNEWKHELFEQCKIGIPHEDIESNDAVILGFMVALFLKHFRESVTSYTPLVVAHFHEWQAGVGLLMTRLWKLDIATVYTTHATLLGRHLCAGGADLYNNLDSFDLDAEAGKRKIYHQYCLERAACQTAHIFTTVSEITGLEAEHFLCRKPDVLTPNGLNVVKFAALHEFQNLHAQNKEKINQFIRGHFHGHLDFDLDKTLYFFTAGRYEFSNKGGDMFIESLARLNHYLKTTSDPRHMGVTVVAFLIYPAPANSFNVESLKGQAVTKQLKEAVDRIKEKVGQRIFDICLQGHLPEPEELMSPADNILLKRCIMSLHNSSLPPICTHNMIRADDPVLESLRRTSLFNKPEDRVKVVFHPEFLSSVSPLIGLDYEDFVRGCHLGVFPSYYEPWGYTPAECTVMGIPSVSTNLSGFGCFMQEHVEDHEQKGIYVIDRRHKAAEESVQELAQVMYDFCGQSRRQRIILRNSNEGLSALLDWQNLGVFYRDCRRLALERLHPDVDKIMRDNEGKVPSAATSRRPSIHSSDGEDDE,not soluble
13,EEFPFALGVQTLPQTCDEPKAHTSFQISLSVSYTGSRSASNMAIVDVKMVSGFIPLKPTVKMLERSNHVSRTEVSSNHVLIYLDKVSNQTLSLFFTVLQDVPVRDLKPAIVKVYDYYETDEFAIAEYNAPCSKDLGNA,soluble
14,HPEKCSECSYSCSSKAALRIHERIHCTDRPFKCNYCSFDTKQPSNLSKHMKKFHGDM,soluble
15,MGSDKIHHHHHHMAVITISREMGTGAYQIAREVAKRLKHTLVDGNKIAELAPRYGLDKELLKRVDEKPPVYITAEDRMHAAHLNTIEIIILDCVKQGNVILYGRGAQDLLSDVENILRIRFIAPFEHRVENFSEREWIDPDLARELIRKSDHQRGGFIHFYFNRDWNDSLGYDLTFNTERMSQSAIIESIIAAAKDSRLKEGEERLKQVIDETILAKKVETAFLKSGDIEYIHFRISVSGKVVSFSGHVHSEAEKREAIRLATAVEGVERVEGDLQVLNYKSHKG,not soluble
16,SKIFSKCELARKLKSMGMDGFHGYSLANWVCMAEYESNFNTQAFNGRNSNGSSDYGIFQLNSKWWCKSNSHSSANACNIMCSKFLDDNIDDDIACAKRVVKDPNGMSAWVAWVKHCKGKDLSKYLASCNL,soluble
17,REFAPPPNLPDPKFESKAALLAARGPEELLCFTERLEDLVCFWEEAASAGVGPGQYSFSYQLEDEPWKLCRLHQAPTARGAVRFWCSLPTADTSSFVPLELRVTAASGAPRYHRVIHINEVVLLDAPVGLVARLADESGHVVLRWLPPPETPMTSHIRYEVDVSAGQGAGSVQRVEILEGRTECVLSNLRGRTRYTFAVRARMAEPSFGGFWSEWSEPVSLLTPSDLD,soluble
18,TKDFSWNSDFIFSHAKNEVTDLRGRTRMMELVSGNGFAREGYPVRGLFSIPFAGLDEKGIPMFDINGNITSTDINFQEREKLDYLKYEGPTDPTITGSFGNVFAYKGFKLNVFMTYSFGNVVRLNPYFNYKYSDLSAMPREFKNRWTLSGDEAKTNIPAILSNPQYEANRTLYKAYNAYNYSTERIAKGDFIRMKEISLSYEFPKSWISAAKISNLSLKLQATNLFLIYADKKLNGQDPEFFNTGGVASPVPRQFTLTLRLGL,not soluble
19,MNYHQYYPIDVVNGPGTRCTLFVSGCVHQCRGCYNQSTQRLDSGVLFTQEAEDKIINDLNDTRIKRRGLSLSGGDPLHPANVPHILKIVKRVREECPGKDIWVWTGYTLAELDDAQREVVQYIDVLIDGKFEQDKKDLNLEWRGSSNQIIHRFTDILEHHHHHH,not soluble
20,MNQGEIVYQDDDDYYDESEIYDNYEEGAEFIEVNGQLVPHNPAQQNRPGTSSMIQQHNRSMEVNQGLVKDEPIDTSSHRVYVPPPRPVQRKPGPSTPGSSQYTVRNLSNLSGSPSMYDRQPASLPRTVQPMGLEMGNSEQRKVYIDMKDHVSHIRLKTKKKVFAPGQRKPCNCTKSQCLKLYCDCFANGEFCRDCNCKDCHNNIEYDSQRSKAIRQSLERNPNAFKPKIGIARGGITDIERLHQKGCHCKKSGCLKNYCECYEAKVPCTDRCKCKGCQNTETYRMTRYKNSGGAVSNTNALMSLTNASSTATPDSGPGSVVTDEHGDDYEDMLLSHKPKVEMDPRRFPWYYMTDEVVEAATMCMVAQAEEALNYEKVQTEDEKLINMEKLVLREFGRCLEQMITNTTELTQDLDAAPTDDIPGPSTSTS,not soluble
21,MTNELLIEIGTEELPAGVINPALDYLKDKINSLLNARQVKTYGTPRRLTLYFKDFENERKEKKEVIWGPPKNVAYDEKGNPTKALEGFLKKNNASLEEVKVLKKDKGEYVAIVRKVIEKSPIEKLQEEFEEILLSVPFPKRMRWTSSKRITFSRPVRWILALFNGQVLKLRFGELESSNKTYGHRFLSKGEVTINNPADYEKTLKEHYVIPDFNERKEIILRALEKSSQEVGGKPSYPEGLVEEVTNLVEYPFPVLGKFDEKYLELPPLVITTVAAHHQRFFCFEKDGKLLNYFLGISNNKPNEKIKEGYEKVLRARLEDALFFYREDLKKDLKSLIPELKKVLFHPKVGSMYEKEERMEKIAQKLCPLLKCEWEKVKEAVWLSKVDLLTEMVKELDELQGYMGYVYAKAQGYDEEVAKALWEQYFPRSLEDKVPETTTGTILSLSDKIDNLYSFFKAGEIPKGSSDPYGLRRSAFGIIKIVDVKNLDLNLEDFKEIYGEFKQYPKLVEFLKQRLISYLEDYPVDIVRAVLNVYSPMEPYKVINSVRVLYEASKSPEFPSVVEAAKRVIRIIPKDWKNYEVDEKLLSEEAERELYQKLTEFENKELKSPLELLPLKEYIDKFFDNVKVMAEDEKIRNNRISLLKRVENLFRTFGDFNEIVIKEG,soluble
